Assays:
[1] = molecular target: PD-1 on PD-1 reporter Jurkat cells; assay: cell-based or functional assay
[2] = molecular target: T1, human PD-1 (human, UniProt Q15116 25-167, limits assumed); assay: BLI, antibody on AHC tip
T1 construct: also called huPD-1
T1 sequence (Q15116 25-167 limits assumed): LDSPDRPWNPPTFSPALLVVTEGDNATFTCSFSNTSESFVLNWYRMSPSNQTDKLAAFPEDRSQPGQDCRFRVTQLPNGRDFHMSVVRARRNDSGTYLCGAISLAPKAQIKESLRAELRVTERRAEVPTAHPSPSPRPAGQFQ

Row | Binder | PD-1 reporter Jurkat cells on test-article-loaded MAdCAM-expressing CHO cells; EC50 [1] | SHP-2 recruitment, Ig-tethered test article, PD-1 reporter Jurkat cells; EC50 (second experiment) [1] | binding result [2]
1 | PMAB61 (bispecific antibody, human IgG1, kappa) heavy: EVQLVQSGAEVKKPGASVKVSCKASGYSFTSYYMHWVRQAPGQGLEWMGIINPSGGSTSYAQKFQGRVTMTRDTSTSTVYMELSSLRSEDTAVYYCASGWVYWGQGTLVTVSSASTKGPSVFPLAPSSKSTSGGTAALGCLVKDYFPEPVTVSWNSGALTSGVHTFPAVLQSSGLYSLSSVVTVPSSSLGTQTYICNVNHKPSNTKVDKKVEPKSCDKTHTCPPCPAPEAAGAPSVFLFPPKPKDTLMISRTPEVTCVVVDVSHEDPEVKFNWYVDGVEVHNAKTKPREEQYNSTYRVVSVLTVLHQDWLNGKEYKCKVSNKALPAPIEKTISKAKGQPREPQVYTLPPSREEMTKNQVSLTCLVKGFYPSDIAVEWESNGQPENNYKTTPPVLDSDGSFFLYSKLTVDKSRWQQGNVFSCSVMHEALHNHYTQKSLSLSPGGGGGSGGGGSGGGGSEVQLLESGGGLVQPGGSLRLSCAASGFTFSSYWMHWVRQAPGKGLEWVSYISGSGGYTNYADSVKGRFTISRDNSKNTLYLQMNSLRAEDTAVYYCARDRPYYYDMDVWGKGTTVTVSSGGGGSGGGGSGGGGSGGGGSDIQMTQSPSSLSASVGDRVTITCRASQSISSSLAWYQQKPGKAPKLLIYAASSLQSGVPSRFSGSGSGTDFTLTISSLQPEDFATYYCQQYKSYPVTFGQGTKVEIK light: not shown | 3.02 nM | 4.45 nM | 
2 | PMAB137 (bispecific antibody, human IgG1, kappa) heavy: EVQLLESGGGLVQPGGSLRLSCAASGFTFSNSAMSWVRQAPGKGLEWVSGITISGGSTYYADSVKGRFTISRDNSKNTLYLQMNSLRAEDTAVYYCARGRGGSGWLDYWGQGTLVTVSSASTKGPSVFPLAPSSKSTSGGTAALGCLVKDYFPEPVTVSWNSGALTSGVHTFPAVLQSSGLYSLSSVVTVPSSSLGTQTYICNVNHKPSNTKVDKKVEPKSCDKTHTCPPCPAPEAAGAPSVFLFPPKPKDTLMISRTPEVTCVVVDVSHEDPEVKFNWYVDGVEVHNAKTKPREEQYNSTYRVVSVLTVLHQDWLNGKEYKCKVSNKALPAPIEKTISKAKGQPREPQVYTLPPSREEMTKNQVSLTCLVKGFYPSDIAVEWESNGQPENNYKTTPPVLDSDGSFFLYSKLTVDKSRWQQGNVFSCSVMHEALHNHYTQKSLSLSPGGGGGSGGGGSGGGGSEVQLLESGGGLVQPGGSLRLSCAASGFTFSDFWMHWVRQAPGKGLEWISYISGDSGYTNYADSVKGRFTISRDNSKNTLYLQMNSLRAEDTAVYYCARDRPYYYYMDVWGKGTTVTVSSGGGGSGGGGSGGGGSGGGGSDIQMTQSPSSLSASVGDRVTITCRASQSVSRSLAWYQQKPGKAPKLLIYAASSLQSGVPSRFSGSGSGTDFTLTISSLQPEDFATYYCQQYKSYPVTFGQGTKVEIK light: not shown |  |  | no binding (tested: 1000 nM)
3 | PMAB184 (bispecific antibody, human IgG1, kappa) heavy: EVQLLESGGGLVQPGGSLRLSCAASGFTFSSYDMSWVRQAPGKGLEWVSAISGSGGSTYYADSVKGRFTISRDNSKNTLYLQMNSLRAEDTAVYYCARGRGGSGWLDYWGQGTLVTVSSASTKGPSVFPLAPSSKSTSGGTAALGCLVKDYFPEPVTVSWNSGALTSGVHTFPAVLQSSGLYSLSSVVTVPSSSLGTQTYICNVNHKPSNTKVDKKVEPKSCDKTHTCPPCPAPEAAGAPSVFLFPPKPKDTLMISRTPEVTCVVVDVSHEDPEVKFNWYVDGVEVHNAKTKPREEQYNSTYRVVSVLTVLHQDWLNGKEYKCKVSNKALPAPIEKTISKAKGQPREPQVYTLPPSREEMTKNQVSLTCLVKGFYPSDIAVEWESNGQPENNYKTTPPVLDSDGSFFLYSKLTVDKSRWQQGNVFSCSVMHEALHNHYTQKSLSLSPGGGGGSGGGGSGGGGSEVQLLESGGGLVQPGGSLRLSCAASGFTFSDFWMHWVRQAPGKGLEWISYISGDSGYTNYADSVKGRFTISRDNSKNTLYLQMNSLRAEDTAVYYCARDRPYYYYMDVWGKGTTVTVSSGGGGSGGGGSGGGGSGGGGSDIQMTQSPSSLSASVGDRVTITCRASQSVSRSLAWYQQKPGKAPKLLIYAASSLQSGVPSRFSGSGSGTDFTLTISSLQPEDFATYYCQQYKSYPVTFGQGTKVEIK light: not shown |  |  | no binding (tested: 1000 nM)
4 | PMAB179 (bispecific antibody, human IgG1, kappa) heavy: EVQLLESGGGLVQPGGSLRLSCAASGFTFSSYDMSWVRQAPGKGLEWVSAISISGGSTYYADSVKGRFTISRDNSKNTLYLQMNSLRAEDTAVYYCARGRGGSGWLDYWGQGTLVTVSSASTKGPSVFPLAPSSKSTSGGTAALGCLVKDYFPEPVTVSWNSGALTSGVHTFPAVLQSSGLYSLSSVVTVPSSSLGTQTYICNVNHKPSNTKVDKKVEPKSCDKTHTCPPCPAPEAAGAPSVFLFPPKPKDTLMISRTPEVTCVVVDVSHEDPEVKFNWYVDGVEVHNAKTKPREEQYNSTYRVVSVLTVLHQDWLNGKEYKCKVSNKALPAPIEKTISKAKGQPREPQVYTLPPSREEMTKNQVSLTCLVKGFYPSDIAVEWESNGQPENNYKTTPPVLDSDGSFFLYSKLTVDKSRWQQGNVFSCSVMHEALHNHYTQKSLSLSPGGGGGSGGGGSGGGGSEVQLLESGGGLVQPGGSLRLSCAASGFTFSDFWMHWVRQAPGKGLEWISYISGDSGYTNYADSVKGRFTISRDNSKNTLYLQMNSLRAEDTAVYYCARDRPYYYYMDVWGKGTTVTVSSGGGGSGGGGSGGGGSGGGGSDIQMTQSPSSLSASVGDRVTITCRASQSVSRSLAWYQQKPGKAPKLLIYAASSLQSGVPSRFSGSGSGTDFTLTISSLQPEDFATYYCQQYKSYPVTFGQGTKVEIK light: not shown |  |  | no binding (tested: 1000 nM)
5 | PMAB144 (bispecific antibody, human IgG1, kappa) heavy: EVQLLESGGGLVQPGGSLRLSCAASGFTFSNSDMSWVRQAPGKGLEWVSGITISGGSTYYADSVKGRFTISRDNSKNTLYLQMNSLRAEDTAVYYCARGRGGSGWLDYWGQGTLVTVSSASTKGPSVFPLAPSSKSTSGGTAALGCLVKDYFPEPVTVSWNSGALTSGVHTFPAVLQSSGLYSLSSVVTVPSSSLGTQTYICNVNHKPSNTKVDKKVEPKSCDKTHTCPPCPAPEAAGAPSVFLFPPKPKDTLMISRTPEVTCVVVDVSHEDPEVKFNWYVDGVEVHNAKTKPREEQYNSTYRVVSVLTVLHQDWLNGKEYKCKVSNKALPAPIEKTISKAKGQPREPQVYTLPPSREEMTKNQVSLTCLVKGFYPSDIAVEWESNGQPENNYKTTPPVLDSDGSFFLYSKLTVDKSRWQQGNVFSCSVMHEALHNHYTQKSLSLSPGGGGGSGGGGSGGGGSEVQLLESGGGLVQPGGSLRLSCAASGFTFSDFWMHWVRQAPGKGLEWISYISGDSGYTNYADSVKGRFTISRDNSKNTLYLQMNSLRAEDTAVYYCARDRPYYYYMDVWGKGTTVTVSSGGGGSGGGGSGGGGSGGGGSDIQMTQSPSSLSASVGDRVTITCRASQSVSRSLAWYQQKPGKAPKLLIYAASSLQSGVPSRFSGSGSGTDFTLTISSLQPEDFATYYCQQYKSYPVTFGQGTKVEIK light: not shown |  |  | no binding (tested: 1000 nM)

Results, then the binder that gave them:

Row | PD-1 reporter Jurkat cells on test-article-loaded MAdCAM-expressing CHO cells; EC50 [1] | SHP-2 recruitment, Ig-tethered test article, PD-1 reporter Jurkat cells; EC50 (second experiment) [1] | binding result [2] | Binder
6 |  |  | no binding (tested: 1000 nM) | PMAB182 (bispecific antibody, human IgG1, kappa) heavy: EVQLLESGGGLVQPGGSLRLSCAASGFTFSSYAMSWVRQAPGKGLEWVSGISGSGGSTYYADSVKGRFTISRDNSKNTLYLQMNSLRAEDTAVYYCARGRGGSGWLDYWGQGTLVTVSSASTKGPSVFPLAPSSKSTSGGTAALGCLVKDYFPEPVTVSWNSGALTSGVHTFPAVLQSSGLYSLSSVVTVPSSSLGTQTYICNVNHKPSNTKVDKKVEPKSCDKTHTCPPCPAPEAAGAPSVFLFPPKPKDTLMISRTPEVTCVVVDVSHEDPEVKFNWYVDGVEVHNAKTKPREEQYNSTYRVVSVLTVLHQDWLNGKEYKCKVSNKALPAPIEKTISKAKGQPREPQVYTLPPSREEMTKNQVSLTCLVKGFYPSDIAVEWESNGQPENNYKTTPPVLDSDGSFFLYSKLTVDKSRWQQGNVFSCSVMHEALHNHYTQKSLSLSPGGGGGSGGGGSGGGGSEVQLLESGGGLVQPGGSLRLSCAASGFTFSDFWMHWVRQAPGKGLEWISYISGDSGYTNYADSVKGRFTISRDNSKNTLYLQMNSLRAEDTAVYYCARDRPYYYYMDVWGKGTTVTVSSGGGGSGGGGSGGGGSGGGGSDIQMTQSPSSLSASVGDRVTITCRASQSVSRSLAWYQQKPGKAPKLLIYAASSLQSGVPSRFSGSGSGTDFTLTISSLQPEDFATYYCQQYKSYPVTFGQGTKVEIK light: not shown
7 |  |  | no binding (tested: 1000 nM) | PMAB145 (bispecific antibody, human IgG1, kappa) heavy: EVQLLESGGGLVQPGGSLRLSCAASGFTFSNSDMSWVRQAPGKGLEWVSGITISGGSTYYADSVKGRFTISRDNSKNTLYLQMNSLRAEDTAVYYCARGRGGSGWLDYWGQGTLVTVSSASTKGPSVFPLAPSSKSTSGGTAALGCLVKDYFPEPVTVSWNSGALTSGVHTFPAVLQSSGLYSLSSVVTVPSSSLGTQTYICNVNHKPSNTKVDKKVEPKSCDKTHTCPPCPAPEAAGAPSVFLFPPKPKDTLMISRTPEVTCVVVDVSHEDPEVKFNWYVDGVEVHNAKTKPREEQYNSTYRVVSVLTVLHQDWLNGKEYKCKVSNKALPAPIEKTISKAKGQPREPQVYTLPPSREEMTKNQVSLTCLVKGFYPSDIAVEWESNGQPENNYKTTPPVLDSDGSFFLYSKLTVDKSRWQQGNVFSCSVMHEALHNHYTQKSLSLSPGGGGGSGGGGSGGGGSEVQLLESGGGLVQPGGSLRLSCAASGFTFSDFWMHWVRQAPGKGLEWISYISGDSGYTNYADSVKGRFTISRDNSKNTLYLQMNSLRAEDTAVYYCARDRPYYYYMDVWGKGTTVTVSSGGGGSGGGGSGGGGSGGGGSDIQMTQSPSSLSASVGDRVTITCRASQSVSRSLAWYQQKPGKAPKLLIYAASSLQSGVPSRFSGSGSGTDFTLTISSLQPEDFATYYCQQYKSYPVTFGQGTKVEIK light: not shown

Reference: patent US20240301064A1 (published 2024)
